Data from patent US20230331836A1 (SUZHOU TRANSCENTA THERAPEUTICS, published 2023).

T1: hCLDN18.2 peptide (amino acid residues 28-37 of hCLDN18.2) (human)
T1 construct: Synthesised by Sangon Biotech; coated on ELISA plates; also called antigen peptide; hCLDN18.2 Peptide (aa28-37)
T1 peptide: DQWSTQDLYN

T2: Human recombinant CLDN18.2 (N-6His) variant (human)
T2 construct: Bought fusion polypeptide; also called recombinant hCLDN18.2 variant protein; Novoprotein NC101
T2 chain: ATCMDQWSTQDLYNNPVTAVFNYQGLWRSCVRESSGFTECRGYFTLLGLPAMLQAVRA

T3: human CLDN18.1 (human, UniProt P56856 1-261)
T3 construct: also called hCLDN18.1
T3 sequence: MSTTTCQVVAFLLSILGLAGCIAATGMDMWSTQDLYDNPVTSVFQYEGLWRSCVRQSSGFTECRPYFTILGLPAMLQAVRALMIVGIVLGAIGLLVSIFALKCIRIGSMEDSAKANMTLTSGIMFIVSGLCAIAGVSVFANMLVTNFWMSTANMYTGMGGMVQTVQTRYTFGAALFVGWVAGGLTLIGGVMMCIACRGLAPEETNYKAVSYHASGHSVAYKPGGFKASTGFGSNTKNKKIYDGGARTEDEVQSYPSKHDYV


Assays:
[1] = biological target: T1, hCLDN18.2 peptide (amino acid residues …); assay: ELISA on coated peptide
Description: (§1) 1 μg/ml of peptide ([…]) was coated onto the high-binding clear polystyrene 96 well plates and blocked with blocking buffer. Serial diluted antibodies (from 150 to 0.0732 ng/ml) in blocking buffer were then added and incubated for 1.5 hrs at room temperature. The plate was washed 6 times using washing buffer and then 100 μl/well Goat pAb to Ms IgG(HRP) was added for incubation at room temperature for 1.5 hr. After washing with washing buffer, TMB was added to react with HRP on the plate. Then OD450 nm of the plate was read by SpectraMax i3x (Molecular Devices). 14G11G2D2 and 69H2F7E6 can specifically bind with the peptide with high affinity while GC182 can not recognize the epitope in the linear peptide. (FIG. 3)

[2] = biological target: T2, Human recombinant CLDN18.2 (N-6His) …; assay: BLI (ForteBio Octet RED 96), His-tagged antigen on Ni-NTA sensors, antibody 50 and 25 nM in solution, 30 C
Description: (§2) 100 nM human recombinant CLDN18.2 (N-6His) (Novoprotein, NC101) protein in 1×Kinetics Buffer ((PBS+0.1% BSA+0.02% Tween20) were loaded onto pre-wet Ni-NTA biosensors (PALL, 18-5101) for 200s. After equilibrated in 1×Kinetics Buffer as baseline (60s), the sensor was immersed into serial diluted antibodies (50 nM, 25 nM) with 1×Kinetics Buffer respectively and incubated for 200s to determine the association (kon), followed by dissociation in 1×Kinetics Buffer for 200s (koff). The biosensors are regenerated for 5s in Regeneration Buffer, followed by neutralization for 5s in Neutralization Buffer for 3 times. All procedure were performed at 30° C. with Octet RED 96 (PALL). The binding affinity KD was calculated and analyzed using the ratio of koff to kon. (FIG. 6).

[3] = biological target: T2, Human recombinant CLDN18.2 (N-6His) …; assay: BLI (ForteBio Octet RED 96): His-tagged recombinant hCLDN18.2 variant loaded on Ni-NTA biosensors, antibody in solution at 50 nM and 25 nM
Description: as §2

human CLDN18.1 [4] = biological target: T3, human CLDN18.1; assay: ICC on FFPE HEK293-CLDN18.1 cell block sections; clone 69H2F7E6; '-' = negative staining
[5] = biological target: T2, Human recombinant CLDN18.2 (N-6His) …; assay: ELISA on coated recombinant CLDN18.2 (N-6His) variant (1 µg/ml)
Description: 1 μg/ml of human recombinant CLDN18.2 (N-6His) variant or human recombinant CLDN18.1 (N-8His) variant (100 μL/well) was coated onto the high-binding clear polystyrene 96 well plates and blocked with blocking buffer. Serial diluted antibodies (from 100 to 0.0244 ng/ml) in blocking buffer were added and incubated for 1.5 hrs at room temperature. The plate was washed 6 times using washing buffer (PBS+0.1% Tween) washer and then 100 μl/well Goat pAb to Ms IgG (HRP) was added for incubation at RT for 1.5 hr. After washing with washing buffer, TMB was added to react with RP on the plate. Then OD450 nm of the plate was read by SpectraMax i3x (Molecular Devices).

[6] = biological target: T1, hCLDN18.2 peptide (amino acid residues …); assay: ELISA: hCLDN18.2 peptide (aa 28-37) coated on the plate at 1 ug/ml, antibody dilution series up to 150 ng/mL, detection with goat anti-mouse IgG-HRP, OD450-OD620
Description: as §1

human CLDN18.1 [7] = biological target: T3, human CLDN18.1; assay: ICC on FFPE HEK293-CLDN18.1 cell block sections; clone 14G11F5E1; '-' = negative staining

| Kd [2] [pM] | koff [3] [s⁻¹] | kon [3] [M⁻¹ s⁻¹] | binding result (human CLDN18.1 [4]) | EC50 [5] [µg/mL] | EC50 [6] [µg/mL] | binding result (human CLDN18.1 [7]) | Binder | binding result [1] |
| --- | --- | --- | --- | --- | --- | --- | --- | --- |
| – | – | – | – | – | – | – | GC182 (antibody, V domains shown, also called anti-CLDN18.2 antibody GC182) VH: QIQLVQSGPELKKFGETVKISCKASGYTFTDYSIHWVKQAPGKGLKWMGWINTETGVPTYADDFKGRFAFSLETSASTAYLQINNLKNEDTATYFCARRTGFDYWGQGTTLTVSS VL: DIVMTQAAFSIPVTLGTSASISCRSSKNLLHSDGITYLYWYLQRPGQSPQLLIYRVSNLASGVPNRFSGSESGTDFTLRISRVEAEDVGVYYCVQVLELPFTFGGGTKLEIK | no binding (tested: 150 ng/ml (highest concentration tested)) |
| 1480 | 0.000695 | 471000 | no binding (tested: 1 nM) | 0.0139 | 0.0143 | – | 69H2 (antibody, mouse IgG1, kappa, V domains shown, Mouse antibody; the recombinant form is VH/VL fused to mouse IgG1 / kappa constant regions; also called 69H2F7E6; 69H2D3B1) VH: QVQLQQSGPELMKPGASLQISCKASGYFFTTYYIHWVKQRPGQGLEWIGWIYPRGGNTVYNEKFKGKATLTSDTSSSTAYMQLSSLTSEDSAVYYCAINYRSTFGYWGQGTLVTVSA VL: DVLMTQTPLSLPVSLGDQASISCRSSQNIVHSNGNTYLEWYLQKPGQSPKLLIYKISNRFSGVPDRFSGSGSGTDFTLKISRVEAEDLGVYYCFQGSHVPFTFGSGTKLEIKR | – |
| 213 | 0.000111 | 522000 | – | 0.0127 | 0.027 | no binding (tested: 0.5 nM) | 14G11 (antibody, mouse IgG1, kappa, V domains shown, Mouse antibody; the recombinant form is VH/VL fused to mouse IgG1 / kappa constant regions; also called 14G11G2D2; 14G11A4E1) VH: QVQLQQSGPELVRPGASVKISCKASGYRFTRNYFHWVKQRPGQGLEWIGWIYPGGFDIEYSEKFKGKATLTTDTSSSTAYMLLTSLTSEDSAVYYCAINYGSTFGYWGQGTLVTVSV VL: DVLMTQTPLSLPVSLGDQASISCRSSQNIVHSNGNTYLEWYLQRPGQSPKLLIYKVSNRFSGVPDRFSGSGSGTDFTLKINRVEAEDLGVYYCFQGSHVPFTFGSGTKLEIKR | – |
